Primed or numbered codes have the meaning given here. Where no end group is shown, it is not given here. FITC′ = not defined here

The target of this assay is T1, Recombinant 6xHis-tagged human VDAC1 (Voltage-Dependent Anion Channel 1) (human, UniProt P21796 1-283).
T1 construct: Voltage-Dependent Anion selective Channel 1 (VDAC1), human; PDB 6G6U is the cited crystal structure of human VDAC1, used only for docking; also called mitochondrial porin; porin; not shown: His6, C-terminal, kept
Kind of assay: pull-down + SEC; 1 uM C-terminal His-tagged VDAC1 immobilised on Ni2+-Sepharose beads, incubated with 1 uM NHK1-FITC for 24 h; unbound peptide washed off; eluted with 200 mM imidazole; eluate loaded on Superdex200 and the complex detected by FSEC (ex/em 494/518 nm), with the VDAC1 profile at 280 nm. Conditions: both partners purified.

T1 sequence (P21796 whole entry): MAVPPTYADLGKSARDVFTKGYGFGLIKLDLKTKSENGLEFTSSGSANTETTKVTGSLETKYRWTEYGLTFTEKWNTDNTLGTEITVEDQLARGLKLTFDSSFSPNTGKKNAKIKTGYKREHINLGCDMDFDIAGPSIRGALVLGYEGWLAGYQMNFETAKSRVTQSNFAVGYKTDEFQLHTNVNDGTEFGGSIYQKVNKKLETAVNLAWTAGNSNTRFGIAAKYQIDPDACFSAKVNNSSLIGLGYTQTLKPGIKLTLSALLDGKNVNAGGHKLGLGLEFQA

B1: NHK1-FITC peptide (FITC-labeled NHK1, residues 2-12 of human HK1) (peptide)
peptide: IAAQLLAYYFT-{FITC′}
notes: hexokinase 1 (HK1), human, amino acids 2-12; also called FITC-NHK1; NHKI; source: synthetic peptide, produced by Proteogenix
As for B1, the binding result was “binds”.
